Laboratory results from patent US20040091887.

T1: bovine fibrinogen, P02672
T1 chain 1: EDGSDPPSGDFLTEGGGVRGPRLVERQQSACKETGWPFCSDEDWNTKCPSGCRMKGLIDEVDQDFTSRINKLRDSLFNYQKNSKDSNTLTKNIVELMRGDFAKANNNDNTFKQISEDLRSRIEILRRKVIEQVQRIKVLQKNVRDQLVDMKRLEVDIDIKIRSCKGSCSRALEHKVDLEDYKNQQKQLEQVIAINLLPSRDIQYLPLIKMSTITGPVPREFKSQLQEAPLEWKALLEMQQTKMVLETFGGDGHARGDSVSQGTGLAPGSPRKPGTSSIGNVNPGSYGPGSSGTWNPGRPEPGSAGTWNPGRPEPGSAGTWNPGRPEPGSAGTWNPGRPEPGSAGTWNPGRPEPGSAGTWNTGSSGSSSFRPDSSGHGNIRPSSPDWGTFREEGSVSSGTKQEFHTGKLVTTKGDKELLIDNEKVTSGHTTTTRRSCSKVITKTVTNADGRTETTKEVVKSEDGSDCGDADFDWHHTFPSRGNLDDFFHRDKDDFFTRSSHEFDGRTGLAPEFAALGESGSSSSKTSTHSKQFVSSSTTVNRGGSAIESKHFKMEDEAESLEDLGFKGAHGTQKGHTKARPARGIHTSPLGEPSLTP
T1 chain 2: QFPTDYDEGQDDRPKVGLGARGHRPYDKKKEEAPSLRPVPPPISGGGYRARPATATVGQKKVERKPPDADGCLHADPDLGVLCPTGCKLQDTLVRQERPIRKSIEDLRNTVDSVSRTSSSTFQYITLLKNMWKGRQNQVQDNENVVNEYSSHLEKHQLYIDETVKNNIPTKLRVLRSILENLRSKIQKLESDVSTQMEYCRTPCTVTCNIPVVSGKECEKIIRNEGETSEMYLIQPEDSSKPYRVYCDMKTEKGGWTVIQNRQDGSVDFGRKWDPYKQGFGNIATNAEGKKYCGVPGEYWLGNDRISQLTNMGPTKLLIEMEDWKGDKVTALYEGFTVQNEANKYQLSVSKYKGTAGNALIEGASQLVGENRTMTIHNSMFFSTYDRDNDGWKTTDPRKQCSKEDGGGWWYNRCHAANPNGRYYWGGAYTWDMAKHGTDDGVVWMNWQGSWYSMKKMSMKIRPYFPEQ
T1 chain 3: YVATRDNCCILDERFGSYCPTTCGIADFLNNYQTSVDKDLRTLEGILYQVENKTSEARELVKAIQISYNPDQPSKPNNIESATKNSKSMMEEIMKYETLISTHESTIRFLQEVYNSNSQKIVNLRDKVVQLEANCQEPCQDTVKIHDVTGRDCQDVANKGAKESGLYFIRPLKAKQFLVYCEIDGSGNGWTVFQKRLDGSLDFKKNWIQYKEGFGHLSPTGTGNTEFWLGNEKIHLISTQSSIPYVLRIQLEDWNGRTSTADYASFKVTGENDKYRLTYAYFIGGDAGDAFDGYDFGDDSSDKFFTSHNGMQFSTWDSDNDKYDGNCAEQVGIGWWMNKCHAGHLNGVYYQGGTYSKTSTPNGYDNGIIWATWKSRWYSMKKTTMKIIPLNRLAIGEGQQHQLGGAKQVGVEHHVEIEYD


Molecular target: T1, bovine fibrinogen, P02672

Row | Protein | dose-dependent fibrinogenolytic assay in vitro: amount for complete digestion of the A alpha chain | dose-dependent fibrinogenolytic assay in vitro: amount for complete digestion of the B beta chain | dose-dependent fibrinogenolytic assay in vitro: amount for complete digestion of the gamma chain | time-dependent fibrinogenolytic assay in vitro: time to complete digestion of the A alpha chain | time-dependent fibrinogenolytic assay in vitro: time to complete digestion of the B beta chain | time-dependent fibrinogenolytic assay in vitro: time to complete digestion of the gamma chain | fibrinogenolytic assay, cleavage pattern on 10% SDS-PAGE: cleavage of the gamma chain | fibrinogenolytic assay, cleavage pattern on 10% SDS-PAGE: start of digestion of the B beta chain | fibrinogenolytic assay, cleavage pattern on 10% SDS-PAGE: time to complete digestion of the A alpha chain | fibrinogenolytic assay, cleavage pattern on 10% SDS-PAGE: time to complete digestion of the B beta chain
1 | recombinant fibrinlysin protein (protein) EQQRFPQRYIKLAIVVDHGMYTKYSSNFKKIRKRVHQMVSNINEMCRPLNIAITLALLDVWSEKDFITVQADAPTTAGLFGDWRERVLLKKKNHDHAQLLTDTNFARNTIGWAYVGRMCDEKYSVAVVKDHSSKVFMVAVTMTHELGHNLGMEHDDKDKCKCDTCIMSAVISDKQSKLFSDCSKDYYQTFLTNDNPQCILNAP | the Aα-chain of fibrinogen was completely digested with 4 µg of the refolded protein | The Bβ-chain was completely digested with 7 µg of the refolded protein | The γ-chain also was completely digested with 21 µg of the refolded protein | the Aα-chain of fibrinogen was completely digested at 5 hr after incubation | The Bβ-chain was completely digested after 7 hrs | the γ-chain was completely digested after 30 hrs |  |  |  | 
2 | Mucroslysin recombinant fusion protein (protein) SSIILESGNVNDYEVVYPRKVSALPKGAVQPKYEDAMQYEFKVNGEAVVLHLEKNKGLFSEDYSETHYSPDGREITTYPSVEDHCYYHGRIHNDADSTASISACDGLKGYFKLQGETYPIEPLELSDSEAHAVFKYENVEKEDEAPKMCGVTQNWESDESIKKASQLYLTPEQQRFPQRYIKLAIVVDHGMYTKYSSNFKKIRKRVHQMVSNINEMCRPLNIAITLALLDVWSEKDFITVQADAPTTAGLFGDWRERVLLKKKNHDHAQLLTDTNFARNTIGWAYVGRMCDEKYSVAVVKDHSSKVFMVAVTMTHELGHNLGMEHDDKDKCKCDTCIMSAVISDKQSKLFSDCSKDYYQTFLTNDNPQCILNAPLRTDTVSTPVSGNEFLEAGEECDCGSPENPCCDAATCKLRPGAQCAEGLCCDQCRFKKKRTICRRARGDNPDDRCTGQSADCPRNGLYG |  |  |  |  |  |  | Mucroslysin protein also exhibited the ability to cleave the γ-chain of fibrinogen | the digestion of the Bβ-chain began at 18 hr | The Aα-chain of fibrinogen was completely digested at 18 hr after incubation | The Bβ-chain was completely digested after 36 hrs
